Test results published in FireProtDB (doi:10.1093/protein/7.9.1089).
“And” between values parts separate entries of the source, which are not always exact repeats. Identical values can stand only once.

B1: Ribonuclease, P00648 (parent)
chain: MMKMEGIALKKRLSWISVCLLVLVSAAGMLFSTAAKTETSSHKAHTEAQVINTFDGVADYLQTYHKLPDNYITKSEAQALGWVASKGNLADVAPGKSIGGDIFSNREGKLPGKSGRTWREADINYTSGFRNSDRILYSSDWLIYKTTDHYQTFTKIR

Variants of: B1
Settings: Bacillus amyloliquefaciens, pH 4.4, Thermal, DSC, Sodium acetate/Acetic acid 6.08 mM/13.92 mM/, reversible: yes (>95%), structure 1BNI, whole UniProt chain shown; for ddG of mutation (higher = less stable) / heat capacity change of unfolding / unfolding free energy: 25 °C

Variant: D55A
- ddG of mutation (higher = less stable): 0.69 kcal/mol
- heat capacity change of unfolding: 1.6 kcal/mol/K
- unfolding free energy: 7.97 kcal/mol
- Tm: 49.7 °C
- change of melting temperature, mutant - wild type (higher = more stable): -1.91 °C
- unfolding enthalpy (calorimetric): 124 kcal/mol
- unfolding enthalpy (van 't Hoff): 127 kcal/mol

Variant: S139A
- ddG of mutation (higher = less stable): 2.83 kcal/mol
- heat capacity change of unfolding: 1.6 kcal/mol/K
- unfolding free energy: 5.83 kcal/mol
- Tm: 44.5 °C
- change of melting temperature, mutant - wild type (higher = more stable): -7.13 °C
- unfolding enthalpy (calorimetric): 111 kcal/mol
- unfolding enthalpy (van 't Hoff): 110 kcal/mol

Variant: I135V
- ddG of mutation (higher = less stable): 1.47 kcal/mol
- heat capacity change of unfolding: 1.6 kcal/mol/K
- unfolding free energy: 7.22 kcal/mol
- Tm: 48.1 °C
- change of melting temperature, mutant - wild type (higher = more stable): -3.37 °C
- unfolding enthalpy (calorimetric): 119 kcal/mol
- unfolding enthalpy (van 't Hoff): 125 kcal/mol

Variant: D59G
- ddG of mutation (higher = less stable): 0.78 kcal/mol
- heat capacity change of unfolding: 1.6 kcal/mol/K
- unfolding free energy: 7.88 kcal/mol
- Tm: 49.7 °C
- change of melting temperature, mutant - wild type (higher = more stable): -1.95 °C
- unfolding enthalpy (calorimetric): 123 kcal/mol
- unfolding enthalpy (van 't Hoff): 124 kcal/mol

Variant: I143V
- ddG of mutation (higher = less stable): 1.18 kcal/mol and 1.17 kcal/mol
- heat capacity change of unfolding: 1.6 kcal/mol/K
- unfolding free energy: 7.51 kcal/mol and 7.52 kcal/mol
- Tm: 49.2 °C
- change of melting temperature, mutant - wild type (higher = more stable): -2.29 °C and -2.3 °C
- unfolding enthalpy (calorimetric): 120 kcal/mol and 112 kcal/mol
- unfolding enthalpy (van 't Hoff): 125 kcal/mol and 123 kcal/mol

Variant: D101N
- ddG of mutation (higher = less stable): 2.46 kcal/mol and 2.66 kcal/mol
- heat capacity change of unfolding: 1.6 kcal/mol/K
- unfolding free energy: 6.2 kcal/mol and 6 kcal/mol
- Tm: 44.6 °C and 44.1 °C
- change of melting temperature, mutant - wild type (higher = more stable): -7.06 °C and -7.49 °C
- unfolding enthalpy (calorimetric): 117 kcal/mol and 115 kcal/mol
- unfolding enthalpy (van 't Hoff): 113 kcal/mol and 116 kcal/mol

Variant: T73G
- ddG of mutation (higher = less stable): 2.08 kcal/mol
- heat capacity change of unfolding: 1.6 kcal/mol/K
- unfolding free energy: 6.58 kcal/mol
- Tm: 47.6 °C
- change of melting temperature, mutant - wild type (higher = more stable): -4.06 °C
- unfolding enthalpy (calorimetric): 112 kcal/mol
- unfolding enthalpy (van 't Hoff): 118 kcal/mol

Variant: T63R
- ddG of mutation (higher = less stable): -0.2 kcal/mol
- heat capacity change of unfolding: 1.6 kcal/mol/K
- unfolding free energy: 8.86 kcal/mol
- Tm: 53 °C
- change of melting temperature, mutant - wild type (higher = more stable): 1.33 °C
- unfolding enthalpy (calorimetric): 126 kcal/mol
- unfolding enthalpy (van 't Hoff): 130 kcal/mol

Variant: R116M
- ddG of mutation (higher = less stable): 2.86 kcal/mol
- heat capacity change of unfolding: 1.6 kcal/mol/K
- unfolding free energy: 5.8 kcal/mol
- Tm: 45.9 °C
- change of melting temperature, mutant - wild type (higher = more stable): -5.77 °C
- unfolding enthalpy (calorimetric): 106 kcal/mol
- unfolding enthalpy (van 't Hoff): 118 kcal/mol

Variant: I98V
- ddG of mutation (higher = less stable): 1.86 kcal/mol
- heat capacity change of unfolding: 1.6 kcal/mol/K
- unfolding free energy: 6.83 kcal/mol
- Tm: 47 °C
- change of melting temperature, mutant - wild type (higher = more stable): -4.53 °C
- unfolding enthalpy (calorimetric): 118 kcal/mol
- unfolding enthalpy (van 't Hoff): 114 kcal/mol

Variant: S138A
- ddG of mutation (higher = less stable): 1.38 kcal/mol and 1.16 kcal/mol
- heat capacity change of unfolding: 1.6 kcal/mol/K
- unfolding free energy: 7.31 kcal/mol and 7.53 kcal/mol
- Tm: 46.7 °C
- change of melting temperature, mutant - wild type (higher = more stable): -4.81 °C and -4.8 °C
- unfolding enthalpy (calorimetric): 126 kcal/mol and 129 kcal/mol
- unfolding enthalpy (van 't Hoff): 116 kcal/mol and 115 kcal/mol

Variant: R130Q
- ddG of mutation (higher = less stable): 1.58 kcal/mol
- heat capacity change of unfolding: 1.6 kcal/mol/K
- unfolding free energy: 7.08 kcal/mol
- Tm: 48.3 °C
- change of melting temperature, mutant - wild type (higher = more stable): -3.29 °C
- unfolding enthalpy (calorimetric): 117 kcal/mol
- unfolding enthalpy (van 't Hoff): 122 kcal/mol

Variant: D69M
- ddG of mutation (higher = less stable): 0.27 kcal/mol
- heat capacity change of unfolding: 1.6 kcal/mol/K
- unfolding free energy: 8.39 kcal/mol
- Tm: 50.1 °C
- change of melting temperature, mutant - wild type (higher = more stable): -1.57 °C
- unfolding enthalpy (calorimetric): 129 kcal/mol
- unfolding enthalpy (van 't Hoff): 128 kcal/mol
